Laboratory results from the RNAGym collection of RNA variant scans (doi:10.1073/pnas.2313332121).

B1: TPR t1 (parent)
chain: GACCAAUCUGCCCUCAGAGCUCGAGAACAUCUUCGGAUGCAGAGGAGGCAGGCUUCGGUGGCGCGAUAGCGCCAACGUCCUCAACCUCCAAUGCAUCCCACCACAUGAUGAUGCCUGAAGAGCCUUGGUUUUUUG

Variants of: B1
Experiment: polymerase ribozyme fitness, log enrichment relative to wild type (log ratio); higher = more active; in vitro selection for triplet polymerase activity
Summary of the method: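 Frozen incubation at −7 °C formed the core of a single, triplicate in vitro selection round applied to PCR-built, transcribed mutant libraries of each subunit of a heterodimeric triplet polymerase ribozyme. Extended constructs were gel-excised, captured with streptavidin beads and amplified by RT-PCR, and input and output libraries were Illumina-sequenced with a filter of ≥10 input reads and ≥1 read per output. Fitness is the logarithm of genotype enrichment relative to wild-type enrichment, with inverse-variance-weighted replicate averaging, and the logarithm is base 2.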

| Variant | polymerase ribozyme fitness (log ratio) |
| --- | --- |
| C3U C79U C94U G110U | -1.77 |
| C3A C72A C88G U92G G127U | -2.7 |
| C3U C13U C104A | -1.31 |
| C3U A74U C101U G113A C123G | -1.18 |
| C3U C12A U21C G36A G63U | -3.34 |
| C3U C86G | -2.21 |
| C3A C102U A121G | -0.526 |
| C3A U32C G69A G120A | -3.63 |
| C3U C53U | -1.24 |
| C3U A91U C115U | -1.86 |
| C3A C123A | -1.18 |
| C3A C123G | 0.176 |
| C3A C123U | -1.48 |
| C3U C28U A41G A43U A46C U92C C94U C124U | -4.65 |
| C3U C12A C13A C49U C72G C99U U116C | -6.31 |
| C3A C72U | -1.75 |
| C3A G10U U129C | -1.94 |
| C3U C12A U87C C124U | -0.256 |
| C3A C8G A74U A95C G117A G128U | -0.293 |
| C3G A119G | -0.446 |
| C3G U14A C20A G42U G61U G117A U131G G135C | -3.96 |
| C3U C123U | 0.881 |
| C3G C8G G117A G120A G135U | -1.6 |
| C3G C4G U7C C53A C123U | 1.4 |

| Variant | polymerase ribozyme fitness (log ratio) |
| --- | --- |
| C3U C8A C20U C53U G58A G77A A90G C101U | -3.06 |
| C3U C86U C104A | -1.75 |
| C3G C4G G25U C28U C34U G71U G107U U112G C114A A121G | -6.59 |
| C3A C62G | -2.38 |
| C3A C62U | -1.99 |
| A2U U106A U129C | -1.74 |
| C3G C13A A95C | -4.35 |
| C3U A68G | -3.05 |
| C3G C8A G113C G127C | -2.92 |
| C3A A16C U78G C79U | -4.42 |
| C3G A27G C53U C72G C79A C98G U116C | -6.51 |
| C3U C13A | -1.28 |
| C3G C82U | -1.74 |
| C3A G61A C79G U112A G135C | -2.83 |
| C3U C53U C73U C88U | -0.301 |
| C3G C8G U32C C115G | -2.01 |
| C3U C11A G47A G110U | -3.77 |
| C3U A29G A46U G61A A66U A83G C86A C101U U132A | -4.12 |
| C3U G10A | 0.634 |
| C3U C12U | -1.59 |
| C3A A43U G60C C82G | -5.1 |
| C3A C53A C73U | -1.17 |
| C3G G113A | -3.52 |
| C3A A111C | -1.17 |

| Variant | polymerase ribozyme fitness (log ratio) |
| --- | --- |
| C3A C12U A29G U87C G110A A118U U131G | -0.49 |
| C3G G36A G39C C53U A121C | -2.59 |
| C3A A6C U59A C62A U78G C97U G117C G135C | -6.34 |
| C3G A6U | -4.02 |
| C3G C13A A18G G25U G63A A111C A118G | -6.44 |
| C3U C11G U21A U129A | -0.924 |
| C3U C15G C72A | -3.04 |
| A2U U112G | -1.44 |
| C3U C56U | -0.891 |
| C3U C53U G57C U59A C88G | -2.35 |
| C3A A41C C80U C123A | -1.77 |
| C3G A37U C49U A100U G113A U129A | -4.75 |
| C3U C8A U54A G69C | -1.46 |
| C3A C15A C53U G63C | -3.45 |
| C3U C13A G69U A121G | 1.51 |
| C3U C15A U81A U92G C115U U125G | -5.92 |
| C3A C20U C101A A105C C114U U131G | -2.47 |
| C3U C53A G71A U78A | -0.343 |
| C3A A50U C80U G120U | -4.64 |
| C3U C8A A16G A43C C79A C88U C124A U125A U132C | -3.17 |
| C3G C22U G61C U109A | -6.73 |
| C3U A29G G48C C73G C79G C101U | -5.51 |
| C3U G17U | -3.11 |
| C3U G17A | -3.24 |

| Variant | polymerase ribozyme fitness (log ratio) |
| --- | --- |
| C3A A6C C12A A50G C56G | -3.05 |
| C3G G110U | -2.82 |
| A2U U129A | 0.107 |
| C3G A18U A43U C114G | -4.61 |
| C3A G57C A90U C114A U132C | -3.92 |
| C3A A29U G61A U130C | -1.93 |
| C3U C22A G36U G71C A84U C123A | -5.28 |
| C3A U106G G113U | -6.02 |
| C3U C12G C13U C62U G120A | 2.11 |
| C3U C56G C79A C124G | -0.114 |
| C3A C4A C40U C104A U112G | -3.41 |
| C3G G61U | -1.85 |
| C3G G61C | -3.19 |
| C3G G47U G93A | -4.99 |
| C3U C72U C76U C85U U116G C124U U129C | -6.12 |
| C3A C89A | -2.07 |
| C3U C12U G63A C89G | -3.24 |
| C3U C82A | -0.533 |
| C3G C11A C12A | -3.85 |
| C3G U7A C12U C62A G117U | -6.14 |
| C3G G19A A29U G48C C72G U106A G110C C114G | -7.4 |
| C3U A5G C8G C11G C73U C99A U109A G120A | -5.15 |
| C3U C11U G42C C56A A74C A105U G120C | -6.23 |
| C3G C72A C94G C124A | -1.46 |

| Variant | polymerase ribozyme fitness (log ratio) |
| --- | --- |
| C3U C102U C114G C124G | -4.14 |
| C3A C4U A46U C114U | -4.9 |
| C3U C70U G113C | -3.44 |
| C3U C49A U92A G113A | -2.63 |
| C3G G61U C104A | -3.47 |
| C3U C15U G63A C101A | -3.66 |
| C3U A84G G120A | -0.608 |
| C3G G120C | -0.918 |
| C3A C8G G63C A95C G117A G128U | -0.17 |
| C3G C88U U106C | -2.72 |
| C3A C40G G48C G77C C124U U133A | -4.13 |
| C3U G17U C72U | -2.73 |
| C3G A5G U112C | -0.649 |
| C3G A50U C94G | -4.4 |
| C3G G47U C64A A90C C104U G113A | -6.9 |
| C3U C85U | -1.43 |
| C3A C89U U96G C124A | 0.0977 |
| C3G C15A | -5.49 |
| C3U A50U G52U | -3.28 |
| C3G C70U | -2.07 |
| C3G G61U C94A A95C C124A U132C U133C | -3.25 |
| C3G C11G G19U G120A | -3.18 |
| C3A C20G G60A C79U C98G C99A C123G | -2.5 |
| C3A G39A U54C C70U C104U | -2.33 |

| Variant | polymerase ribozyme fitness (log ratio) |
| --- | --- |
| C3G G36U A83U | -3.46 |
| C3U A95G | 0.0555 |
| C3A C56A G135U | -2.75 |
| C3G G69U A90U G93A U112C | -1.26 |
| C3U A105U | -1.94 |
| C3A C102U | -2.94 |
| C3U C11U G71A A119G | -0.255 |
| C3G C4G C53U G60U G93A | -3.06 |
| C3U C4G | -2.81 |
| C3U C12A G69U G117A | -2.56 |
| C3A G10U | -1.63 |
| C3U C124A | 1.2 |
| C3U C124G | 2.17 |
| C3U C40G G47A C62U A84G | -3.81 |
| C3A U9G C98U | -1.51 |
| C3U C56U G77C | -1.42 |
| C3G G42A C56G U106C G113U A121U | -4.31 |
| C3G C62U G120C | -0.751 |
| C3U C101A G117U G135U | -4.63 |
| C3U C94G C114A U125A | -4.28 |
| C3U C20G C53A C97U U109A | -3.06 |
| C3G C12A C114A G128C | -3.31 |
| C3U C40U C62U A75U G93C U96G | -3.29 |
| C3U C12U A18U U87A C88U | -2.52 |

| Variant | polymerase ribozyme fitness (log ratio) |
| --- | --- |
| C3U C11U A50U C64U U81G C102U G128A | -3.47 |
| C3A A46C C53A C72U | -1.88 |
| C3G G128U | -1.24 |
| C3U C73U U87C C88U A111G C123A | -3.08 |
| C3U C13U A37C C70A | -1.1 |
| C3U A26U G48A U130G | -5.25 |
| C3G G44A G47A C86G G120A | -4.34 |
| C3A A75G A111G A118G U129C | -1.7 |
| C3A C34A | -3.91 |
| C3U A46U | -1.57 |
| C3A C56U G61U G113U G120U U126C | -5.49 |
| C3G C11A C115U | -6.42 |
| C3A C20U U38A G61A C82A G110A G127A | -6.34 |
| C3U C12U G63A A66C U133A | -2.5 |
| C3A A37U | -2.19 |
| C3U C62A C115A U125G | -1.86 |
| C3G G17U A50U U54A A74G A121C G135U | -4.33 |
| C3G G39U | -2.39 |
| C3U A43G U55G A111G U126A | -4.64 |
| C3A U7G G10A C49G C104U G110C C124U | -4.49 |
| C3U C13U C15U G48U G113A | -2.97 |
| C3G A29U G71A A119G | -2.72 |
| C3U A37C G122A | -2.49 |
